Laboratory results from the supplement of paper PMC12042874.
± gives the uncertainty stated by the source.

Assay: amyloid nucleation score (Sup35N fusion, yeast selection) (log enrichment); library NNK3; higher = more nucleation; inactive = no reads after selection
How it was run: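 Peptides of 20 random codons, each fused to Sup35N, were expressed in psi-negative yeast. Cells were induced with 100 μM copper sulfate for 24 hours and grown 7 days at 30°C on medium lacking adenine and uracil, and plasmid inserts before and after selection were Illumina-sequenced. Nucleation scores are DiMSum log enrichments of output over input reads, centred on the mode score of non-aggregating sequences, and sequences under 100 input reads were excluded.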

Amyloid nucleation score, 2.49 ± 0.071:
AMIFAICCLNNQESVGVRRT

Amyloid nucleation score, 1.74 ± 0.11:
ARIPEMLWFWVGTRKRGFII

Amyloid nucleation score, 1.98 ± 0.09:
ASTTVGCVYYTLVLIG

Amyloid nucleation score, -0.303 ± 0.39:
ANDGAHFFIIQLECHAEEVR

Amyloid nucleation score, 0.838 ± 0.12:
CFLGVSNMHIGWFGVR

Amyloid nucleation score, 1.46 ± 0.099:
CGPHTSYRTMIVLNIRYNFY

Amyloid nucleation score, 1.75 ± 0.096:
AHCCSFRAEFV

Amyloid nucleation score, -0.272 ± 0.37:
ACRYDLSKKPNASWARAEG

Amyloid nucleation score, -0.363 ± 0.82:
AYIIN

Amyloid nucleation score, -0.402 ± 1.1:
AYMCCYDAYTPRRSRCDWYI

Amyloid nucleation score, 0.712 ± 0.39:
ACSLAFLHICHRHF

Amyloid nucleation score, 0.671 ± 0.3:
CFIMLWCTISFIILVSLVTD

Amyloid nucleation score, 1.64 ± 0.099:
ANELERYYVMCFW

Amyloid nucleation score, -0.578 ± 1.3:
ANGLAGDYE

Amyloid nucleation score, -0.127 ± 1.1:
ARYKGWTHNWPINHLIFLNS

Amyloid nucleation score, -0.01 ± 0.96:
ARSIFEVTRHEAAGRMSVFS

Amyloid nucleation score, 0.078 ± 0.23:
AEIKMLLLQIHDS

Amyloid nucleation score, 0.193 ± 0.29:
CFETCLSAVGHSIQAQKLSG

Amyloid nucleation score, 1.36 ± 0.15:
AYPARLTIASEFKIMAHYGM

Amyloid nucleation score, 0.103 ± 0.55:
CHSFIMIYVVMMDIS

Amyloid nucleation score, -0.436 ± 1.7:
AGESEISVRMEKSHSGVASR

Amyloid nucleation score, -0.411 ± 0.73:
ASNEERLLFKCLLKV

Amyloid nucleation score, -0.387 ± 1.5:
ACSYVGTKMLPGANLRDKPW

Amyloid nucleation score, inactive:
AACNIN
ACAGMDCKGYMFLWSFGRAW
ACGCYVSEIPWLRDRIKFWQ
ACGGCHYKRAYMQLGLMRLK
ACIYYHTASCKRCQQAIESE
ADMCWTNRSETYDGELTVGV
ADVLLMRDRAFRRGSWRMAR
AEYLMEQAGTMC
AFDYLVV
AFKLYWKYCRYNPWVRNR
AFQLVHSWSFVGGTRALAVT
AFWSH
AFYFNEMYRLVLMGTM
AGHYLLSPGYQMMLERSNRS
AGLPLV
AGVWWVCRRGVFFALMLM
AGWGLLQSCRRFWEWCG
AHGNINFSLCDWHHIIQFSM
AIRGMNAERNR
AITGFNRKVDYLGSGECVEH
AIVWPSYFIWFYSNESRKDR
AKCMSNYYERCVLNTERREL
AKQVGLY
AKVKIWAWASIGCPPMQALV
AKWSGFYYVLMYFFMLHLRY
ALCSKGMGANSAKTK
ALFKTYHLKGMFGKNWVLVV
ALFTESF
ALGCPGSQNLYFGSGSPAWS
ALKSPDSD
ALLCRMGRVRWPVSHEGNVC
ALLTAYDRKNTNGYAGVRWN
ALMGHE
ALQFATVDGKVLSI
ALSAYQGVFSYWCRWQWLVA
ALVDILFLDLGLTLDLRVGL
ALVSK
ANHLPWEAVWTPRWGYGCSP
ANKPWVNDIFPT
ANKWESGSNALLDISVLMFW
ANLIYPRLEFCISMCTQMAE
ANPLAYLQSMSGTSGNT
ANSYHWTVFVRMFSQDIVNI
ANTGFLLSWNGFLLMCLELD
ANTGMWLRMFPCWAPWDRVE
APGIFPMSGMISYSLRV
APNFCWSLFYVDSNVEFERL
AQNSDHMSKATVH
AQPVNMDKSWG
AQRGIYWTTKVD
AQSGVPRGAPGLAFDSVPHK
ARFFVVGLWCVSIKIVPFFD
ARLAFGIGE
ARLAYMYMEDGKCSTHRGKF
ARLPFCAISLTRYGWFSCRC
ARRNYHRAINFGGSCAIINK
ARVKWMVGEIWCQSDDKPLE
ASACPRLWVRLCLGCVIPKE
ASATARHTPNIY
ASDCWLFIGNAGSFTGKRSC
ASHDKGFYLGSCTYLYGLRL
ASKALIWCLSRCIDLVVLRE
ASLRLLVLVNSMWVGFFFNS
ASMLLDKYFANLYELVLRVF
ASNDDVG
ASQAALFGKIHYEASY
ASRGRRLCSLYTHEGGSS
ASRKTFYAL
ASTDEDFNTNTECT
ASTQRMYMSLLVDGWVTIRL
ASYRAVNVDTGRIWPEFQLG
ASYYVKEFVQREHSIYAN
ATFYSFLRFKQINNRNNEAF
ATKYDFYMVNKRNFWKSRGF
ATLYNSVRLC
ATRSLSDRPLEYCNNVDRKK
ATYNEMYVVPSRASPKGDWD
AVAHA
AVFRLSSTISECDLHACAPV
AVITSRVRWSLRNRRANISM
AVSLGVTRSKIRLASKVRVD
AVTSLDVGFYV
AVVRDDLVSCPPSAATLQIP
AWVHNSVRRHSSPSPRLGGM
AWYSDCRCVKPHVGRGNWCM
AYALALCLRE
AYEIQWIWPNAASTVKSVLA
AYFDLWLM
AYFLKEVNYMVKIYNLECRV
AYKNRSFFLVVVITYNRVMP
AYMLGITQNNGNHLNSSRRR
AYNGK
AYRINRTTDRIIIDSGDVVV
CADGSSFRETPSNFTHPNIL
CADQWS
CADVTTTHGGLYVGPSSTAT
CAESFHIAASG
CAFVDSISCLPLFR
CAYDINYLCSREWVSNSCWG
CCSKFHAQN
CDHYRISWNLKWLVVRMYY
CDIHLRIY
CDIRAAGSKLTDYPLSTRAS
CDVHL
CELVAQFPKFFAFYIFYDDT
CENYRMGYRNVRVSFAPPFK
CFCYSLDSLLQVGNNS
CFKFWWGIRENFKFLGDVMR
CFKSIITMNFYINWYFVSSP
CFLSWWLRDLVLSSCSTYVD
CFMLSDGHTCFVLMSGWFSS
CFMTS
CFNRITDC
CFPASCIQ
CFYLDQSRFRSA
CFYMTSSDYQEGNG
CGCYSLMFFSMTCNEKLLSL
CGFAHFRNVALGWWYGVTLN
CGGAMMKN
CGRRYGTGAPRCL
CHEKANQELRHPYGCECVFV
CHFIRGESSRTKLGLEHTN
CHISFWLTLWGRSNSEMWMD
CHSRTDKNSFC
CHWNYTKIRHFYEVVGDQTG
CHYNFPVPAVKILRGQRNVA

Amyloid nucleation score, 0.259 ± 0.49:
CFYVSLCGV

Amyloid nucleation score, 0.314 ± 0.46:
AYFLLCHHFTKRSWARGWR

Amyloid nucleation score, -0.496 ± 1.5:
AQSYSCFRNHFTDAVVCVFS

Amyloid nucleation score, 1.14 ± 0.13:
CATIILSCILSL

Amyloid nucleation score, -0.592 ± 1.4:
AVRMICDSCAYSLPTWVDLA

Amyloid nucleation score, -0.549 ± 0.68:
ASEFKTSWWNV

Amyloid nucleation score, -0.045 ± 1.1:
CEWNERRRDGSSRNFDLLSQ

Amyloid nucleation score, 0.898 ± 0.21:
CGMCLGLLHR

Amyloid nucleation score, 1.09 ± 0.094:
CEFTAPVICLISLCYVGRSR

Amyloid nucleation score, 3.14 ± 0.058:
CCNYFLNIIYVVQV

Amyloid nucleation score, -0.172 ± 1.5:
ACESCSFTSWRTYLCSKVRT
